Measured values from the DeepSol protein solubility set.

Assay: soluble on expression in E. coli; label from the status in PepcDB or PDB records

| Sequence | soluble on expression in E. coli |
| --- | --- |
| MIEQIGADSKSAENKQERKLYIETYGCQMNVADSEVVASVMQMDGYNLTDNVDEADTILVNTCSVRDNAEQKVLNRLAYYHSLRKKRRASSRLVIGVLGCMAERVKEELIREHHVDVVAGPDSYLDLPNLVGAAEQGEKAINVELSTQETYKDVMPLKMGGVHINGFVSIMRGCNNFCSYCIVPYTRGRERSREIESILNEVRDLKAKNFREVTLLGQNVNSYRYEQNGRIIRFPDLLAAVAEAVPDMRIRFTSPHPKDMDDEAIAVMARYRNICNHIHLPAQSGSDKMLRVMKRGYTRRWYLDRVAAIRRAIPDCAISSDLFCGFHSETEEDFEATLSLMEEVRYDSAFMFKYSERPGTYAARHLADDVPEEVKLSRLDRMIALQNRLSEESNKRDIGKTFEVLIEGFSKRSREQLFGRTQQNKVVIFDKNGHRVGQYIYVRIKDASSATLFGEVVETPTSE | not soluble |
| MEEDIVRLFYKGSEIILIGTSHISAESADLVRKTIQEENPDTICIEWDQKRYKKNIHPDEWDDTDIVKIIKNKQFPVFIFGVIYKLFQKKVSQDMNSLVGKEFVVAVDESKKLNIKFYLIDRDSSLTFKRAWRMLNFREKVKLPYAFGKIFEGAEETEEEVQNLLESENFEPVFEELKESYPNLWEVFVTERDDYLATKIQNTANGKTVAVLGKAHLKGVSDRLKNNQKSDLQKLEIIPPKK | not soluble |
| MTPKRALISLTSYHGPFYKDGAKTGVFVVEILRSFDTFEKHGFEVDFVSETGGFGWDEHYLPKSFIGGEDKMNFETKNSAFNKALARIKTANEVNASDYKVFFASAGHGALFDYPKAKNLQDIASKIYANGGVIAAICHGPLLFDGLIDIKTTRPLIEGKAITGFPLEGEIALGVDDILRSRKLTTVERVANKNGAKYLAPIHPWDDYSITDGKLVTGVNANSSYSTTIRAINALYSVEHHHHH | soluble |
| HGPWPAAGAWELTILHTNDVHSRLEQTSEDSSKCVNASRCMGGVARLFTKVQQIRRAEPNVLLLDAGDQYQGTIWFTVYKGAEVAHFMNALRYDAMALGNHEFDNGVEGLIEPLLKEAKFPILSANIKAKGPLASQISGLYLPYKVLPVGDEVVGIVGYTSKETPFLSNPGTNLVFEDEITALQPEVDKLKTLNVNKIIALGHSGFEMDKLIAQKVRGVDVVVGGHSNTFLYTGNPPSKEVPAGKYPFIVTSDDGRKVPVVQAYAFGKYLGYLKIEFDERGNVISSHGNPILLNSSIPEDPSIKADINKWRIKLDNYSTQELGKTIVYLDGSSQSCRFRECNMGNLICDAMINNNLRHTDEMFWNHVSMCILNGGGIRSPIDERNNGTITWENLAAVLPFGGTFDLVQLKGSTLKKAFEHSVHRYGQSTGEFLQVGGIHVVYDLSRKPGDRVVKLDVLCTKCRVPSYDPLKMDEVYKVILPNFLANGGDGFQMIKDELLRHDSGDQDINVVSTYISKMKVIYPAVEGRIKFSTGSVRASSPSPL | soluble |
| MEFFGETWRRELAAEFEKPYFKQLMSFVADERSRHTVYPPADQVYSWTEMCDIQDVKVVILGQDPYHGPNQAHGLCFSVQKPVPPPPSLVNIYKELCTDIDGFKHPGHGDLSGWAKQGVLLLNAVLTVRAHQANSHKDRGWETFTDAVIKWLSVNREGVVFLLWGSYAHKKGATIDRKRHHVLQAVHPSPLSAHRGFLGCKHFSKANGLLKLSGTEPINWRAL | soluble |
| MHHHHHHSSGRENLYFQGFRGTDPGDVVIEELFNRIPQANVRTTSEYMQSAADSLVSTSLWNTGQPFRVESELGERPRTLVRGTVLGQEDPYAYLEATDQETGESFEVHVPYFTERPPSNAIKQMKEEVLRLRLLRGIKNQKQAKVHLRFIFPFDLVKDPQKKKMIRVRLDERDMWVLSRFFLYPRMQSNLQTFGEVLLSHSSTHKSLVHHARLQLTLQVIRLLASLHHYGLVHTYLRPVDIVLDQRGGVFLTGFEHLVRDGASAVSPIGRGFAPPETTAERMLPFGQHHPTLMTFAFDTWTLGLAIYWIWCADLPNTDDAALGGSEWIFRSCKNIPQPVRALLEGFLRYPKEDRLLPLQAMETPEYEQLRTELSAALPLYQTDGEPTREGGAPPSGTSQPDEAGAAEAVTAI | soluble |
| MGSDKIHHHHHHVGAGGRDVVWTPRSLYLTDFIHANLLEKLKMQTLIIYSTIDGQTLAICQKIKLFAEQAGENVSLVTLEQAEALSLADFDKVLIGASIRYGKYRPELYQFVNRHHAVLDTKINGFFSVNVVARKPLKNTPETNPYMQKFLKLSLWQPQHLAVFAGKIDYPKYSFFDRTMIRFIMWMTKGPTDINGTFEFTDWAKVDAFGTDFSHQ | not soluble |
| GPFCGRARVHTDFTPSPYDTDSLKIKKGDIIDIICKTPMGMWTGMLNNKVGNFKFIYVDVISE | soluble |
| MGSDKIHHHHHHMKLPIKKAVEALLKLQTTGDSATLIGVGPMSRNLLQASFELAKEDDYPLMFIASRNQVDADELGGGYVNGWNQFSFIDAIKEVAKEVDFDGLYYVCRDHGGPWQRDQERNDHLPTEKAMELGKKSYIADIEAGFDLLMIDPTKDPFEVGKVIPLETVLERTVDLIAFCEEERKKRGLPEIGYEVGTEETNGGLTSTETYEKFITQLKVELEKRDLPLPTFIVGQTGTLTRKTEQVGHFNFKNAYDLAQMAKKYGVGLKEHNGDYLDDVTLLEHIPSEITATNVAPQYGTEETRAYLKLVELEQKLVENGLIKTPSNAREVLLIQSIKSERWRKWMLDGQKDITINEIMQDDDLSLEILDIAGHYTFNDAMVKKEINTLYANLAANNIDGKRFVIDHIKRPIRNYSECYNLKGATTRIKQLAK | not soluble |
| MGSDKIHHHHHHMIYYGTMFDHKVRFSIVRMREVVEEARNRHALSYLATVVLGRALIGAALVTPWLAEKERWTLDIEGNGPIRRVVAQSTSEFTVRGYVANPKVELPLNEKGKFDVAGAIGQGVLRVVRDLGLKTPFVSQVPLVSGEIAEDLAYYFAVSEQIPSAFSIGVLVDSDGVKIAGGFAVQIIDRTLEQEKVEMIEKNIKNLPSISKLFQEAEPLDVLERIFGEKVGFVETAEIKYKCDCNREKAKNALLVLDKKELEDMRKEGKGEVVCKWCNTRYVFSEEELEELLKFKVDDSGS | soluble |
| MSTTKAFKMTYTNAGNKKTEQVIQATEPLTILLMGVDTGGEGRGTSDSWNGNSDSQILMTLNPKTHTTTMVSIERDTMTNILDADGNIVSKQKMNAAYPLGYNSGSSSDGLKNAVSYAMKTISAQTGINIDSFVTVNFDGLVNMVDNVGGIDINNTTGQTLYISDTEPQYTAKVPPGKQHINGDQALVYTRDRHHLSNGDYGRAAHQREVIAALMKKILALDNITRYEQFLNEASKDFRTNIPINASTITSLLGYKDCFNKVVSIQYEGVGEMVDGASYQFMPTDIYLAMQNIMKKSLDESTVTTLPSSLITYESVFGSGTAPFYYLPSATVTEKGKSTVTYGVDTQGNLVSLNSKNSGNYVSTSGGSVQSDSSSGSSSSSSDSTATSSSDSTYQQDNTYNDGYNNSNDSTTSSYGTDDTNTGNYGYGTSQLEHHHHHH | soluble |
| MSLNGATQGLLGWSSRGEIAAEIADAKQSQSVYVDKIANSSLAEIQADPTLMQFALSGGAAAFKVNCIQCHGSGAEGGQGYPNLNDDDWMWGGSVDDIYTTVKHGIRFADDADTRASEMPAFGDILKSDEIRAVAAYVVSLTGTPSNPALVEPGKQLFADNCASCHGEDAKGNREFGAPNLADAIWLKAHGEEGIVAQIRSPKHGVMPAWGERLGDTTVKQLAIFVHSLGGGEGHHHHHH | not soluble |
| MKINTALGVAAGKSAHYLLSKMGRGSTYPGSLALKFDKDILDTIAKDYEIVVVTGTNGKTLTTALTVGILKEAFGQVVTNPSGANMITGIVSTFLTAKKSKSGKKIAVLEIDEASLPRITQYIKPSLFVFTNIFRDQMDRYGEIYTTYQMILDGAANAPQATILANGDSPLFNSKSVTNPVQFYGFNTDKHEPRLAHYNTEGILCPKCQAILTYRLNTYANLGDYTCPNCDFERPNLDYALTRLTHLTNTSSGFVIDGQQYNINVGGLYNIYNALAAVSVAEYFGVEPSQIKDGFDKSRAVFGRQETFTIGNKKCTLVLIKNPVGASQALDMIKLAPYPFSLSVLLNANYADGIDTSWIWDANFETILTMNIPEIFAGGVRHSEIARRLRVTGYDEKRIKQADKLQDIMTMIEQQETEHAYILATYTAMLEFREILANHNAIRKEMN | not soluble |
| GSHEHPEFLKAGKEPGLQIWRVEKFDLVPVPTNLYGDFFTGDAYVILKTVQLRNGNLQYDLHYWLGNECSQDESGAAAIFTVQLDDYLNGRAVQHREVQGFESATFLGYFKSGLKYKKGGVASGFKHVETQEKNPLPSKETIEQEKQ | soluble |
| MSKTIIKNIGKIVSGDIKSPVLQADTIVVEDGLIAAIGGEELMKDAGDATIIDAAGSTVTPGLLDTHVHVSGGDYAPRQKTMDFISSALHGGVTTMISAGSPHFPGRPKDAAGTKALAITLSKSYYNARPAGVKVHGGAVILEKGLTEEDFIEMKKEGVWIVGEVGLGTIKNPEDAAPMVEWAHKHGFKVQMHTGGTSIPGSSTVTADDVIKTKPDVVSHINGGPTAISVQEVDRIMDETDFAMEIVQCGNPKIADYVARRAAEKGQLGRVIFGNDAPSGTGLIPLGILRNMCQIASMSDIDPEVAVCMATGNSTAVYGLNTGVIAPGKEADLIIMDTPLGSVAEDAMGAIAAGDIPGISVVLIDGEAVVTKSRNTPPAKRAAKIL | soluble |
| MSQNASVGIVMPQKIPFEMPLVLENGKTLPRFDLMIETYGELNAEKNNAVLICHALSGNHHVAGRHSAEDKYTGWWDNMVGPGKPIDTERFFVVGLNNLGGCDGSSGPLSINPETGREYGADFPVVTVKDWVKSQAALADYLGIEQWAAIVGGSLGGMQALQWTISYPERVRHALVIASAPKLSTQNIAFNDVARQAILTDPDFNEGHYRSHNTVPARGLRIARMMGHITYLAEDGLGKKFGRDLRSNGYQYGFGVEFEVESYLRYQGDKFVGRFDANTYLLMTKALDYFDPAADFGDSLTRALQNVKAKFFVASFSTDWRFAPERSHELVKALIAAQKSVQYIEVKSAHGHDAFLMEDEAYMRAVAAYMNNVYKECQQ | not soluble |
| MKPANLIHPSVIMSKKYNKMGEGCIICASNIITVNVTLGDHIIVNLDCTIGHDVVINDYVTIYPSVNVSGNCNIGECVELGTGTQVIQGNNIGDRTIVGAGSVVIRNIEGDKVAVGVPTKVIKLEHHHHHH | not soluble |
| GMDDETLRLQFGHLIRILPTLLEFEKKGYEPSLAEIVKASGVSEKTFFMGLKDRLIRAGLVKEETLSYRVKTLKLTEKGRRLAECLEKCRDVLGS | soluble |
| MSNPTKISILGRESIIADFGLWRNYVAKDLISDCSSTTYVLVTDTNIGSIYTPSFEEAFRKRAAEITPSPRLLIYNRPPGEVSKSRQTKADIEDWMLSQNPPCGRDTVVIALGGGVIGDLTGFVASTYMRGVRYVQVPTTLLAMVDSSIGGKTAIDTPLGKNLIGAIWQPTKIYIDLEFLETLPVREFINGMAEVIKTAAISSEEEFTALEENAETILKAVRREVTPGEHRFEGTEEILKARILASARHKAYVVSADEREGGLRNLLNWGHSIGHAIEAILTPQILHGECVAIGMVKEAELARHLGILKGVAVSRIVKCLAAYGLPTSLKDARIRKLTAGKHCSVDQLMFNMALDKKNDGPKKKIVLLSAIGTPYETRASVVANEDIRVVLAP | soluble |
| NPSTTKAPLADYLAHLPLAEEERERLGESASFSELHARLAGAEGAAADAGGDPALASVRARLQLGTPELDDAEMFGVDAQGRTFLKISPPIRRTKVIPEPWRTNILVRGWRRLTGRSNPPKPKRALPRARWQ | not soluble |
| MKRRRKSGEKVQMHRFALPLCYGSEAPYYYYEVAPHEREERFHLTSELCVMDDEHYFIRGCLEIPIIDYHENFIWTVWVSLSKESYDEVLEKWDERGRENSDPYFGWLSVEMPVYPETLNLKTNVHIREVGTAPYVELEPTEHPLAIEQRNGITLERVKEIQEMIQRHS | not soluble |
| MAKKRSKLEIIQAILEACKSGSPKTRIMYGANLSYALTGRYIKMLMDLEIIRQEGKQYMLTKKGEELLEDIRKFNEMRKNMDQLKEKINSVLSIRQ | soluble |
